From a protein production outcome set (Wang et al. 2014)

Experiment: label from the status in PepcDB records
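Note: failed if final PepcDB status was selected cloned or expressed and not failed if soluble or beyond.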

| Sequence | protein production |
| --- | --- |
| MSLAQGRQVIGLDIGTTSTIAILVRLPDTVVAVASRPTTLSSPHPGWAEEDPAQWWDNARAVLAELKTTAGESDWRPGGICVTGMLPAVVLLDDRGAVLRPSIQQSDGRCGDEVAELRAEVDSEAFLARTGNGVTQQLVTAKLRWIERHEPAVFGAIATVCGSYDYINMLLTGERVVDRNWALEGGFIDLASGTVEADLVALAHIPPSAVPPAHPTHRVLGAVTAEAAALTGLPTGLPVYGGAADHIASALAAGITRPGDVLLKFGGAGDIIVASATAKSDPRLYLDYHLVPGLYAPNGCMAATGSALNWLAKLLAPEAGEAAHAQLDALAAEVPAGADGLVCLPYFLGEKTPIHDPFASGTFTGLSLSHTRGHLWRALLEAVALAFRHHVAVLDDIGHAPQRFFASDGGTRSRVWMGIMADVLQRPVQLLANPLGSAVGAAWVAAIGGGDDLGWDDVTALVRTGEKITPDPAKAEVYDRLYRDFSALYATLHPFFHRSREGHHHHHH | not failed |
| MSLASNKKYTFACLLPKHLEGEYWTDVQKGIREAVTTYSDFNISANITHYDPYDYNSFVATSQAVIEEQPDGVMFAPTVPQYTKGFTDALNELGIPYIYIDSQIKDAPPLAFFGQNSHQSGYFAARMLMLLAVNDREIVIFRKIHEGVIGSNQQESREIGFRQYMQEHHPACNILELNLHADLNIEDSRMLDDFFREHPDVKHGITFNSKVYIIGEYLQQRRKSDFSLIGYDLLERNVTCLKEGTVSFLIAQQPELQGFNSIKTLCDHLIFRKEVACTNYMPIDLLTKENIDYYHSEGHHHHHH | not failed |
| MSLDDIINNMIDKLKLLVHFDRISFLLLANETLKLSHVYPKGSHSLDIGSTIPKEQSLYWSALDQRQTIFRSLTDTQDNFYEKQYLAILDLKSILVIPIYSKNKRVGVLSIGRKQQIDWSLDDLAFLEQLTDHLAVSIENVELYGQVLRSKQEWEDTFKAVD | not failed |
| MSLDKGDKAPDFALPGKTGVVKLSDKTGSVVYLDFWASWCGPCRQSFPWMNQMQAKYKAKGFQVVAVNLDAKTGDAMKFLAQVPAEFTVAFDPKGQTPRLYGVKGMPTSFLIDRNGKVLLQHVGFRPADKEALEQQILAALGGNEGHHHHHH | not failed |
| MSLDQIKIAYIGGGSQGWARSLMSDLSIDERMSGTVALYDLDFEAAQKNEVIGNHSGNGRWRYEAVSTLKKALSAADIVIISILPGSLDDMEVDVHLPERCGIYQSVGDTVGPGGIIRGLRAVPIFAEIARAIRDYAPESWVINYTNPMSVCTRVLYKVFPGIKAIGCCHEVFGTQKLLAEMVTERLGIEVPRREDIRVNVLGINHFTWITKASYRHIDLLPIFREFSAHYGESGYELEGECWRDSVFCSAHRVAFDLFETYGAIPAAGDRHLAEFLPGPYLKQPEVWKFHLTPISFRKQDRAEKRQETERLIVQQRGVAEKASGEEGVNIIAALLGLGELVTNVNMPNQGQVLNLPIQAIVETNAFITRNRVQPILSGALPKGVEMLAARHISNQEAVADAGLTKDTGLAFQAFLNDPLVQIDRSDAEQLFNDMLQCIMQSEGHHHHHH | not failed |
| MSLEESLEQLKRQYLHALPDKKKQIITLWVSLRKNWQSYMLSAVYREVHNLKGSSETFGLTETKDIVDKLELQLKNLLDAPAPTLNLIKGLDTLFHQLLQNNQHYLPAAPVVEAQMQQNPYNPSKARHEYCIAIIEDDNNVGAMITKQLHEFGFNVQHFLNFTDFIKVQYASPFDLILLDLILPDYTEDALFEAACEFEKNNTRVFVLSSRSDFDMRLLAIRANVSEYFVKPAETTLLVRKIHQWLKMSDKPPLKVLLVDDQQSMVDYFSSLLRSHGLMVRGMTKPEQVIPTLEQFEPDLFIFDLYMPGVNGLELARMIRQLDKYTSSPILVLSSDDTMQNKVSIIQAGSDDLISKQTAPSLFVTQVISRAQRGHDIRSSASRDSLTGLLNHTQILVAARHCINLAKRANSSVCIAMLDLDHFKQVNDTYGHSGGDKVLLAFAHLLQQSLRAADFMGRYGGEEFMLVIPDMPAPLVIAKVNAIRESFSNIVFVEEGAEFKVTLSGGLAFSTECHEFQECLLLADKNLYEAKRTGRNRIINTLVK | failed |
| MSLEKQIESYYQEIAQLIIDMIPEEWAEVRFYAQEDHDGWKIFFFHYLSASSDEWTKDIDIRDVIKVPQDEFMEKYNELSFCISDFRKDYAEAFGEPWMSFQMTFYASGKFNIDFYYDKNPFDTFLTRLAWQYEHFGTIPEDSFYKETLNEYLEEKAQGKRYPFLEPLKEEEGHHHHHH | not failed |
| MSLELPAEVQEMPIYREWISGILAGKIASPFWEMAQPQKNQHCLDIGCGVSFLIYPWRDWQAFFYGQDVSNVARDTLNSRGSQLNSKLFKGVELGAAHQLKYTLSYFDLAIATGFSCYFPLEYWTSVLQAVKRVLKPDGHFVFDILNAAHPQAEDWAVLETYLGAEVFLEPVTEWEKIINAAGAKVVGRQPGEFFDLYKLRLEHHHHHH | not failed |
| MSLENKFARTVLGDIPVEKLGITDCHDHFIKNGGPEVEEHIDFLMLNVDASIKEFKEFIDRGGSTIVTMDPPNVGRDVLKTLEIANAVKNLGGNVIMSTGFHKAKFYDKYSSWLAVVPTEEIVKMCVAEIEEGMDEYNYNGPVVKRSKAKAGIIKAGTGYGAIDRLELKALEVAARTSILTGCPILVHTQLGTMALEVAKHLIGFGANPDKIQISHLNKNPDKYYYEKVIKETGVTLCFDGPDRVKYYPDSLLAENIKYLVDKGLQKHITLSLDAGRILYQRNYGLTKGKQTFGLAYLFDRFLPLLKQVGVSKEAIFDILVNNPKRVLAFDEKRNFDPLKVSKEVLELKKELNLNEGHHHHHH | not failed |
| MSLERLRVAAYCRVSTDSEDQLNSYKSQVQYYTDMIKKNKEWVLADIYADEAITGTQVTKREDFQRMINDCMNGEIDMVFTKSISRFARNTLDTLKYVRMLKERNIAVYFEDEKINTLTMDGELLLVVLSSVAQQEVENISANVKKGLKMKMKRGELVGFQEGHHHHHH | not failed |
| MSLESMLSHPPIPIADMAEHTERLKANDSLKLSQEYESIDPGQQFTWEHSNLEVNKPKNRYANVIAYDHSRVILQPIEGIMGSDYINANYVDGYRRQNAYIATQGPLPETFGDFWRMVWEQRSATIVMMTRLEEKSRIKCDQYWPNRGTETYGFIQVTLLDTIELATFCVRTFSLHKNGSSEKREVRQFQFTAWPDHGVPEYPTPFLAFLRRVKTCNPPDAGPIVVHCSAGVGRTGCFIVIDAMLERIKPEKTVDVYGHVTLMRSQRNYMVQTEDQYSFIHEALLEAVGCGNTEVPARSLYAYIQKLAQVEPGEHVTGMELEFKRLANSKAHTSRFISANLPCNKFKNRLVNIMPYESTRVCLQPIRGVEGSDYINASFIDGYRQQKAYIATQGPLAETTEDFWRMLWENNSTIVVMLTKLREMGREKCHQYWPAERSARYQYFVVDPMAEYNMPQYILREFKVTDARDGQSRTVRQFQFTDWPEQGVPKSGEGFIDFIGQVHKTKEQFGQDGPISVHCSAGVGRTGVFITLSIVLERMRYEGVVDIFQTVKMLRTQRPAMVQTEDEYQFCYQAALEYLGSFDHYATEGHHHHHH | not failed |
| MSLEWCKNRLEITGRSVFVDIMQQWVTGEEVPLYRHAIQQSIRLFLAGCAGILKPVKCMEYPPFPRLVSHGTGSAVASNLAFQHWLDLLLKDAVLDGDTIRQIDRIYLQSGIASVKWETIPEGARQIITQLMARQYPDWFGVASWSSHINGADCWTKLGVMQEHACNCDMLMIIPTRLAIELNGNSQLLTGVSTTHDLYSHLYGMAWPSGQNIIWQRDRINSLRLDFDSPSYPPSAELMGELSAVFDCEIRHWYQEPVNGIRGYDCYDRGDHVDSGEYGAGPFLPPLKVEEVTVNGQEEAAEGHHHHHH | not failed |
| MSLFGRLLSLLLAFVPLSICAAVNHLPVVGEDYVEIPDGRPFAPLAGKIEVVEIFGYTCPHCAHFDSKLQAWGARQAKDVRFTLVPAVFGGVWDPFARAYLAADVLGVAKRSHAAMFEAIHEKGSVPIQNVGPDELAVFYAGYGVQPDRFVATFNGPEVEKRFQAARAYALKVRPVGTPAIVVDGRYMVTGHDFDDTLRITDYLVSRERAASHGR | failed |
| MSLGELNVATVTRRPEILLVDSQEVILQRLQQLLSPLPYTLHFARDATQALQLLASREVDLVISAAHLPQMDGPTLLARIHQQYPSTTRILLTGDPDLKLIAKAINEGEIYRYLSKPWDDQELLLALRQALEHQHSERERLRLQDEGHHHHHH | not failed |
| MSLGVTMHDVAKAAGVSAITVSRVLNQPQQVSEQLREKVMQAVDALAYVPSRSASTLASAKSRTVLVLIPSLANTVFLETLTGIETVLDAAGYQMLIGNSHYDAGQELQLLRAYLQHRPDGVLITGLSHAEPFERILSQHALPVVYMMDLADDGRCCVGFSQEDAGAAITRHLLSRGKRRIGFLGAQLDERVMKRLDGYRAALDAADCRDAGLEWLDPQPSSMQMGADMLDRALAERPDCDALFCCNDDLAIGALARSQQLGIAVPERLAIAGFNDLQPAAWCTPPLTTVATPRRDIGVHAAKALLQLIDGEEPASRRADLGFRLMLRRSSEGHHHHHH | not failed |
| MSLHPVSISLSSYGADLVRSRGQASFLPLLAMAGAQRVELREELFAGPPDTEALTAAIQLQGLECVFSSPLELWREDGQLNPELEPTLRRAEACGAGWLKVSLGLLPEQPDLAALGRRLARHGLQLLVENDQTPQGGRIEVLERFFRLAERQQLDLAMTFDIGNWRWQEQAADEAALRLGRYVGYVHCKAVIRNRDGKLVAVPPSAADLQYWQRLLQHFPEGVARAIEYPLQGDDLLSLSRRHIAALARLGQPQEERQHG | not failed |
| MSLHTSHVIPAPRIDVWEWHTRPGAVFRLTPPFLPLRPLEQATSLAKGTTVFALPAGLRWEARHDLSGYIQHHRFTDVCINAPVKSLASWRHIHDFTDHPSGTLITDTVHTRAPRTTLSPAFAYRQHQLINDIQAQQRFYELTRSNPTESTPLTIGLTGSRGLVGRALTAQLTTLGHTVVQLVRGESKPHQRHWDPAHPAPNLLEGLDALIHLAGEPILGRFNDAHKADIRDSRIEPTRQLSQLVQKSSTCRTMVSASAIGYYGHARGDEILDEGSTQGDDFLASVCEEWEAASRTDATSNKRIVNIRTGVVMSGRGGMLPVLKAVFSVGLGGPFRGSNPWMSWIAIDDLCDIYIRAVLDPKLSGAINAVAPNPIKNQDFVDALAKELKRPAKMTISSLGPAILLGQQGAKELALADQRVQPRVLNNLDHHFRYVDIRSCLAHELGGENLLDI | failed |
| MSLIADHGFAFLVLACLFGFFMAWGVGANDVANAMGTSVGSRALTIRQAILVAMVFEFCGAYFAGGEVTETIRSGIVDPQYMTPDLLVFGMLSALLAAGVWLLLATIKGWPVSTTHSIVGAIIGFASVGVSVHAVHWGAIGPIVASWVVTPVLSGLLAFALFRSVQWLVLHAEDPFRSARRYVPLYMFLAGFMVALMTVGKGLKHVGLELSGLQTLGLALLAGGLVMGLGIVLLLRIRPTGGADPRGGFASVERVFAVLMIFTACSMAFAHGANDVANAIGPVAAVVAVVQAGGDLDLVSRSPVPSWVLLLGAVGIVIGLATYGYRVIATIGREITELTPSRGFAAELATASTVVGASAIGLPVSTTHTLVGAVLGIGMARGIGALNLRVIGSIFLSWVVTLPAGAVLAILFFLVLRALFGA | failed |
| MSLIAIVLVFIMAIVVTVFLSHLLPVKVPLPLIQIAAGAALAASGFQVDFDPHIFLLLFIPPLLFLDGWRIPKDAFFRDMKPILSLAIGLVMVTILGIGLFIHWLIPAITVAAGFALAAILSPTDPVAVSAMTASSPLPSRMAHILEGESLLNDASGLVAFNFAIAAVLTGSFSPGDAVVKFFLMAFGGILSGLVVVWVTGKCNNFLVRRTREEPAIQILISLLIPFAAYLLAEAFHVSGILAAVAAGIAMHYEQLSGPRLPATRMKSSAVWSMLQTTLNGMIFLMLGEQLPRMLRTLPAVASQAGVSSPWYLLLYAVAITLALGLMRFAWVWLSMKLTIFRRKRRGKAITVRPRFSILAVMALAGVKGSVTLAGILTLPVVLADGSPFPGRELLIFLSMAVILMSLVVAAIGLPFMTRYLADDLPHDTGKDDIGAVMTEVAINRLNALLDEPVEDPSEQALRADAGNMLLETYQRRLHYNDNDEGQDVGLELAKRARLEKYMQREVIIAQRQELFRLRRAHNISDITFYEVLREIDLKEESLR | failed |
